In article PMC12522135 (2025):

How the values were obtained:
[1] = target: human serum albumin (human, UniProt P02768 25-609); test: ELISA
[2] = target: mouse serum albumin (mouse, UniProt P07724 25-608); test: ELISA
mouse serum albumin, sequence (P07724 25-608): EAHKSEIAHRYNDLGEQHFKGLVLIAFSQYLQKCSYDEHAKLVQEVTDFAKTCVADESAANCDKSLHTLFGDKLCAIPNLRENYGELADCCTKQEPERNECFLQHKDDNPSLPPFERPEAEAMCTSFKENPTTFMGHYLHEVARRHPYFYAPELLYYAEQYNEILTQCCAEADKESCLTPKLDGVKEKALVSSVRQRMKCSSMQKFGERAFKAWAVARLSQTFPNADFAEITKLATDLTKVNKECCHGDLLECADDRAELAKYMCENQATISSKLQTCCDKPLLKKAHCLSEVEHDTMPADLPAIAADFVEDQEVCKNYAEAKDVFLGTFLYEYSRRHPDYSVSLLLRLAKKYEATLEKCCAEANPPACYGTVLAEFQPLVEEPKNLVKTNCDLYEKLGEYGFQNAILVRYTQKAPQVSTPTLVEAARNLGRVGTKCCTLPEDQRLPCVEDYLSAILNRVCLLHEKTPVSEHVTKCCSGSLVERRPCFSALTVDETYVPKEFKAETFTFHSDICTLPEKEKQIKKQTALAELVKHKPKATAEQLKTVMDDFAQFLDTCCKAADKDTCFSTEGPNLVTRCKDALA

| Binder | Kd [1] [nM] | Kd [2] [nM] |
| --- | --- | --- |
| HEX-D3-ASA (designed binder) DLGKKLLEAARAGQDDEVRELLKAGADVNAKDYFSHTPLHLAARNGHLKIVEVLLKAGADVNAKDFAGKTPLHLAANEGHLEIVEVLLKAGADVNAQDIFGKTPADIAADAGHEDIAEVLQKAAGGGSGGGSGGGSGGGSGELKAIAQELKAIAKELKAIAWELKAIAQGAGGGGSGGGSGGGSGGGSDLGKKLLQAARAGQLDEVRELLKAGADVNAKDQEGITPLHVAAHQGHLEIVEVLLKAGADVNAKDVWGRTPLHLAAWRGHLEIVEVLLKAGADVNAKDHAGATPLHAAALSGHLEIVEVLLKAGADVNAQDKSGKTPADLAARAGHQDIAEVLQKAA | 2.82 | 24.4 |
| Bilayer HEX-D3-ASA (designed binder) DLGKKLLQAARAGQLDEVRELLKAGADVNAKDQEGITPLHVAAHQGHLEIVEVLLKAGADVNAKDVWGRTPLHLAAWRGHLEIVEVLLKAGADVNAKDHAGATPLHAAALSGHLEIVEVLLKAGADVNAQDKSGKTPADLAARAGHQDIAEVLQKAAGGGSGGGSGGGSGGGSDLGKKLLEAARAGQDDEVRELLKAGADVNAKDYFSHTPLHLAARNGHLKIVEVLLKAGADVNAKDFAGKTPLHLAANEGHLEIVEVLLKAGADVNAQDIFGKTPADIAADAGHEDIAEVLQKAAGGGSGGGSGGGSGGGSGELKAIAQELKAIAKELKAIAWELKAIAQGAGGGGSGGGSGGGSGGGSDLGKKLLQAARAGQLDEVRELLKAGADVNAKDQEGITPLHVAAHQGHLEIVEVLLKAGADVNAKDVWGRTPLHLAAWRGHLEIVEVLLKAGADVNAKDHAGATPLHAAALSGHLEIVEVLLKAGADVNAQDKSGKTPADLAARAGHQDIAEVLQKAAGGGSGGGSGGGSGGGSDLGKKLLQAARAGQLDEVRELLKAGADVNAKDQEGITPLHVAAHQGHLEIVEVLLKAGADVNAKDVWGRTPLHLAAWRGHLEIVEVLLKAGADVNAKDHAGATPLHAAALSGHLEIVEVLLKAGADVNAQDKSGKTPADLAARAGHQDIAEVLQKAA | 7.9 | 124 |
